The data set is described as follows: label from the status in PepcDB records.

Consider “MSEGFSSSSIQELYQSLKEITNNADVELFEDRITKLDFESTDEPKHANDIIKDRFLRPSNALPWSLLDMVQDVPHTSSPEDCSGKLDYKELLKVPDPINRTSYQFKRTGLEGKISGYKEEVDLKEVANANASNSLSITRSINHNQNSVRGSTAQLPFTPGGIPMKSVKTDSEQNGSSTMANATKLLHKDGQGLFDIPEGMNRGIKPMDSPAENEDQNGQFKELKQLNEIDNELDIRIEANEAKLKEEEKSAKSISEEIMEEATEETTADNADDAEIDELLPIGIDFGRTKPVSKSVPVKKEWAHVVDLNHKIENFDELIPNPARSWPFELDTFQKEAVYHLEQGDSVFVAAHTSAGKTVVAEYAIAMAHRNMTKTIYTSPIKALSNQKFRDFKETFDDVNIGLITGDVQINPDANCLIMTTEILRSMLYRGADLIRDVEFVIFDEVHYVNDQDRGVVWEEVIIMLPQHVKFILLSATVPNTYEFANWIGRTKQKNIYVISTPKRPVPLEINIWAKKELIPVINQNSEFLEANFRKHKEILNGESAKGAPSKTDNGRGGSTARGGRGGSNTRDGRGGRGNSTRGGANRGGSRGAGAIGSNKRKFFTQDGPSKKTWPEIVNYLRKRELLPMVVFVFSKKRCEEYADWLEGINFCNNKEKSQIHMFIEKSITRLKKEDRDLPQILKTRSLLERGIAVHHGGLLPIVKELIEILFSKGFIKVLFATETFAMGLNLPTRTVIFSSIRKHDGNGLRELTPGEFTQMAGRAGRRGLDSTGTVIVMAYNSPLSIATFKEVTMGVPTRLQSQFRLTYNMILNLLRIEALRVEEMIKYSFSENAKETLQPEHEKQIKVLQEELQTIEYKSCEICDNDIEKFLELMLAYKEATVNLMQEMVKSPSILHILKEGRLVAFRDPNDCLKLGFVFKVSLKDAVCVIMTFTKPYKLPNGEPNHLIYFPKADGYRRRNFPKFQKTDFYMEEVPVTAIEVITKRKFAAPLGKVIKKDVAALNEFNAETNNILDGKTLKEAINIEKQGLKIHQILLDRTNIRDEIFKLKSIKCPNLSQHIVPKFKAHVIKKKIEELYHLMSDQNLSLLPDYEKRLAVLKDTEFIDQNHNVLLKGRVACEINSGYELVLTELILDNFLGSFEPEEIVALLSVFVYEGKTREEEPPIVTPRLAKGKQRIEEIYKKMLCVFNTHQIPLTQDEAEFLDRKRFAMMNVVYEWARGLSFKEIMEMSPEAEGTVVRVITWLDEICREVKTASIIIGNSTLHMKMSRAQELIKRDIVFAASLYL”, for which the protein production entry is listed as “failed”.

For “MSEKAKKGFKMPSSYTVLLIIIAIMAVLTWFIPAGAFIEGIYETQPQNPQGIWDVLMAPIRAMLGTHPEEGSLIKETSAAIDVAFFILMVGGFLGIVNKTGALDVGIASIVKKYKGREKMLILVLMPLFALGGTTYGMGEETMAFYPLLVPVMMAVGFDSLTGVAIILLGSQIGCLASTLNPFATGIASATAGVGTGDGIVLRLIFWVTLTALSTWFVYRYADKIQKDPTKSLVYSTRKEDLKHFNVEESSSVESTLSSKQKSVLFLFVLTFILMVLSFIPWTDLGVTIFDDFNTWLTGLPVIGNIVGSSTSALGTWYFPEGAMLFAFMGILIGVIYGLKEDKIISSFMNGAADLLSVALIVAIARGIQVIMNDGMITDTILNWGKEGLSGLSSQVFIVVTYIFYLPMSFLIPSSSGLASATMGIMAPLGEFVNVRPSLIITAYQSASGVLNLIAPTSGIVMGALALGRINIGTWWKFMGKLVVAIIVVTIALLLLGTFLPFL”, the protein production result is reported as “failed”.

As for “MSEKMRRIVEAAGGIVWRWKAGSDIANDPAIASSKSAQEQLDSIEVCIVHRPKYDDWSWPKGKLEQNETHRHAAVREIGEETGSPVKLGPYLCEVEYPLSEEGKKTRHSHDCTADTKHTLYWMAQPISADDAEHLLDAFGPVHRADVGEINDIVWVSVREARKILSHSTDKDTLAVFVDRVQEGAATAQNLLIVRHAKAESRKSWKGTDANRPITPKGAAMAFALNRELACFNPTRLATSPWLRCQETLQVLSWQTERPMEHINTLTEDAFAEHPAVSWLAFREQITQTLNSRETTAICMHRPVIGGMYDHLRGLCARKQLAKQLIAKSPYMPTGTAMSLFIIDTPQGPSIIDIQKVSPIVY”, the protein production entry was “failed”.

Regarding “MSELNKEMTLLPPPELVQYVGGDFKKVGKEFLKHFIQIGALKSNEKVLDVGCGVGRMAVPLMNYLNDDGAYYGFDLFKDGITWCQNNISTMRNNFHFEHVDIYNQFYNPEGKEDASQYRFPYEDGTFDFIFLTSVFTHLLPKELEHYVSEIVRVLKKDGRCFITFFLINPESSYYLNAGQSTLGFYHRIENCYVVNKDIPNFAVAYPETDICNLLNKYGLEIINKPHYGLWCGRHEYTSYQDIVLTKKSFLEHHHHHH”, the protein production result was “not failed”.

Consider “MSELQILIFNAAVFSILAVYHYWKNRKLNIAFYILAYYSICAWGALLYHEHELFHYMRGRETYSIIPFLYLIPVIFLFAYPIIRYDNTRITRIETLNSNFFINLVWILLFIQIVLYIILFPSFLKAILSSNIGDYRNDTYDESEIVQFPNYFFNILCRLYMGARNVVILIAAYGLLVIKTHRKLLKIFLVTSLCFPVYMFTAYASRAVMIMTFFFLVFIFVFLSVFMNVGLKKKIVSYLILILVPISSAFILISNSRFGNLATYMFYRYLGESFNNYNTHFFYELKGNTWGEAYFVFFRKLMGISSNFKTTREKWEWLDNITGVDTHVFYTFVGGLNIEFGFVGTIVIGLLLSFFMVKKMRPYNVLTLPKFIALGMLAYTLINGVFFFVLQGDWGNLEILFTLFFCFLFSKYRTRKYINK”, for which the protein production entry is “failed”.

Take “MSENENSQEKNELLDALNSVEEVNVGDVVKGEVLAIDDDKQVIVGIQGTGVEGVVPLKELSTQRVDDVNEAAKVGDVLDLVVISRIGSDKENGSYLLSHRRLEARKVWDDVEKEYEAGHTIKAPVTQVVKGGLVVDAGVRGFIPASMIDDHYVEDLNAYKGQELELKIIEIEPSENRLILSHRAVVEKQREAQREEALKTLQAGDVVEGKVARLTNFGAFVDLGGIDGLVHVSEISYERVEKPADVLKVGQEVTVKILSVDADRERVSLSIKATLPEPWDGIEEKAPQGAVLDGKVKRLTSFGAFVEVFPGVEGLVHISQISHQHIATPNDVLKVGQEIKVKVLDVRPDEKRLALSIKALEEKPQTADDDNESQPERRSNNNRRRNNNRDNRTASERSTANAPEESTGFTLGDLIGDELKNAESNNDENLEHHHHHH”: the protein production entry is given as “failed”.

For the sequence “MSENEPAQMIEGRYRIVRNIAEGGMATVYEAIDERLGRTVAIKVMHTQLAKGPHREQFVERFRREANSAASIANPHIVQVYDTGEFNGLDFLVMEYVHGVNLRHEMNAQGTFSVRETLRVVAETLDGLASAHRAGVVHRDIKPENILINDRGHVQITDFGLAKAASQATLSSTGMLLGTAAYLAPEMIENNQATAQGDLYSVGIMAWEMLTGKVPFDSDNPVTLVFKHVHEDVPSVATVCQGIDPSVAAFIAHLTARQVDVRPTDGAAAAEELSQLAAKLPLEAWQYRLHAEPIGGDHTDATAAALVGNIAEQAPLTGVPAGAATFEPSVPAFLADDVASNTADTGGAADVNPPAPPVAPTTALDSSTPADASAPHKTQIMAQSGSETQVLPQAGDAFTRAPALSDEPDVASNGTGPKKQRSKNRFIVLVIVLVLAAIGGTAGWWWFAGPGSYWSVPKPDDVTCDANAGTECSLTGADWATYESTLKAFGIPYKTHEEYSDDVAEGKIISSSVNKTKAVVNSHISKRANQELTVVVSKGVRMATIPKDILDANSANGKNPLNALKKAGFDNVKHDESKDEYSMDTPQGVALTISPDPGTTAKHNDEVTITLSKGPMPVTMPDIVGKTQYEMQAALGELKLTANVTEQYDDKVEAGQVISASQEAGAQLKWGDSVDVVISKGPEMATIPSGLVGKQESAVTKTLESLGFKVKADKVLGGLFGTVRTVKSGDTDLSNGGKTRLRDANGNPTVITLTIV”, the protein production result is on record as “failed”.

“MSENTKVEAKRVFIGAGCNRVVNNVSWGASGLVSFGAQNAVAVFCPKTAQILTTLPGHKASVNCTHWLPTSKFAFKAKKLDRQYLLSGDSDGIIILWELSTLNNDQQWRHVLQLPLSHKKGVTCITAYMVSETDAMFASASSDGVVNVWDVSFPSQPSEECKVVCLDSICVDTKAIVTLSLAELPQNPGRFALALGGLDNKIKLYSGERTGKFTSVCELKGHTDWIRSLDFSLPLHTTEEIPNSIMLVSSSQDKVIRIWKLVLVGDVGSWRREITLASYIEGPVFVSGTFTYQISVESVLIGHEDWVYSVEWQPPVIDFIDGRLVNHQPLSILSASMDKTMMIWRPEKKTGVWVNVVCVGELSHCALGFYGGHWSPNSLSILAHGYGGAFHLWRNVSSSKESENWQMQKVPSGHFAAVTDVTWARTGEYLLSVSQDQTTRVFSAWKNDEGNEAEDEHWHELARPQVHGHDINCVAMVQGKGNHRFVSGAEEKVVRVFEAPLSFLKTLNHTCAGGEGSFPEDLQADVQVLGANMSALGLSQKPIYLHSSSEPLERNGGGEGLDTFETVPEAAPAELKEPPIEDQLAFHTLWPESHKLYGHGNELFSLCSDHKGNLVASSCKAQSASMAEIWLWEVGTWKAVGRLQSHSLTVTHLEFSYDDTLLLSVSRDRHFSVFSIQRTDNGEVSHKLMAKVEAHKRIIWACSWNPFGHQFATSSRDKTVKIWSVENDARIKQILVLPPFGSSVTAVAWTGLDRNEKSGCVAVGMESGLIELSNVKIIETEEGTTATAALALRLEPFMCHVSAVNRLAWRPTEKCESNQSLRWLTSCGDDNCVRVFNFKF”: the protein production result is given as “failed”.

As for “MSEPHRDTKIGQVLMNRYQLTELIGKGSMGRVYRAEDILLGGVPVAVKFLSQTLLNDRMKTRFAQEARAGALLGQKSMHVVRVLDYGMNNEEIPFYVMEFLEGENLSDLLLEEPLPLSRFLRIARHMCLGLQVAHEGIIIEGQKCPIIHRDIKPSNVLVIQDGTMGELAKLLDFGIAKFLGDVPEKGQTSSFMGTLAYCSPEQIEGRELDHRSDIYSLGITMYELLTGKMPIQAESHSIGSWFKAHHFQKPIPFNVASPGLHLPPALEELIMACMAKSPSDRPQNVAEIIKVLTALEDQFGSTRVTQPGVEVGAKVSQPLERQSQPPVALATVEEVCWQSVWPADKPVAEIVFPMPLYAQRESAASLWVMLPRSEIDRRMLNLRYNQFLFTTSPHPMILWITAIYDPQQGPRWLPCYLDMKLPRNQELCLLLSETGYYPLLFFSLEDPQHCINVRTFTIATFQRQLLRDWLQTSKNLPSSAPAVVSRNLLKAEFENYKPQILAKLENVKMATVID”, the protein production result is reported as “failed”.

“MSEPMSERERWQLELDKLQRGLQGDPFAFLGPQRDPGGEGGVLRAYLPGAQRVELLDEDGATLAELEQSDPGSGLFQRHLERLPPRYRLRVHWPDGVQESEDPYAFGPLLGELDLYLFAEGNHRQLASCLGAQLTRHEGVEGVRFAVWAPNAVRVSVVGDFNGWDGRRHPMRRRYPSGVWELFVPRLGEGELYKYELQGHDGLLPLKADPLALACETPPGTASKTCAALRHEWRDQDWLARRAERQGYAAP”: the protein production entry was “failed”.

For the sequence “MSEPVFPTPEAAEDAFYAAFEARSLDDMMAVWARDDHVACIHPLAAPLNGRAAVAAGWRSMFGAAGRFRLQVKAVHEIRQADHVIRIVDEFLTIGDETAPRPAILATNVYRREADGWRMVLHHASPLQVGAKAGADTPPVVFH”, the protein production result is given as “not failed”.

On to “MSEPYGKAFSLMRAEAEPAWRAYTHHAFVEGLKAGTLPREAFLHYLQQDYVFLIHFSRAWALAVVKSETHSEMLAAVGTVNALVAEEMQLHIGICEASGISQEALFATRERAENLAYTRFVLEAGYSGDLLDLLAALAPCVMGYGEIGKRLTAEATSTLYGDWIDTYGGDDYQAACKAVGTLLDDALERRLGAEFTSSPRWSRLCQTFHTATELEVGFWQMGLTP”, for which the protein production entry is “not failed”.

Turning to “MSEQNEKEGAVGSLERGLLIIRVLLDAPGPMSLAELAQELALGPSTVHRLLGTLTKLGQVVREPRGKRYLAAPQVLASLSFQHPITLVRLACRSAIEELRERTGETSAFVLFIGYERLVQDFVIGQRLLSPNYQTWLRSPMHGSASGKLLLSTVPENNWVDLIGHEPYQAHTPSTITTYEEMVAEIQAIRRQHYCVSKNEGYEGVSAFGYPVVVLGKTVGCITLTVESASLNESREAFLIQEMLRCVKSIQAVSGSLKLLHDWLF”, the protein production result is listed as “failed”.

The values above are taken from a protein production outcome set (Wang et al. 2014).
